Km data for three substances are collected here from patent US7727950B2, “Methods and reagents for assaying protein kinase activity” (The University of Dundee, priority 2002, dated 2010).

Usually Km stands for the substrate concentration at which the rate is half of its maximum.

For data set [1], the system named is CC(C)C[C@H](NC(=O)[C@@H](NC(=O)[C@H](CCCNC(=N)N)NC(=O)[C@H](C)NC(=O)[C@@H](N)CCCNC(=N)N)[C@@H](C)O)C(=O)N[C@@H](CO)C(=O)N[C@@H](Cc1ccccc1)C(=O)N[C@@H](C)C(=O)N[C@@H](CCC(=O)O)C(=O)N1CCC[C@H]1C(=O)NCC(=O)O. Kind of data set: purified protein, by the assay type. The following applies: other: CaMKII; Standard Substrate = MHRQETVDCLK; 30.0 °C.
Description: All protein kinase assays were linear with respect to time. […] The assays with the three generic peptides introduced in this example were carried out in the same buffers as follow. Unlabelled or biotinylated substrate peptides were assayed for 10 min at 30° C. in 50 μl incubations, in the presence of 0.1 mM [y^32P]ATP or unlabelled ATP. Radioactive assays were terminated by spotting 40 μl of each incubation on to phosphocellulose paper followed by immersion in 75 mM phosphoric acid. All papers were subsequently washed a further three times in phosphoric acid, once in acetone, then dried and counted for radioactivity. Non-radioactive assays were terminated by the addition of EDTA to a final concentration of 20 mM, then diluted with an equal volume of phosphate-buffered saline (PBS), containing 0.1% Tween 20 and the biotinylated peptides captured by incubation for 60 min on pre-washed, 96 well Streptavidin coated plates (Equilon A/S, Vedbaek, Denmark). […] The plates were then washed six times (five min per wash) in PBS, 0.1% Tween 20 and binding of the phospho-specific antibody detected by incubating the plates with peroxidase-conjugated anti-sheep antibodies (Pierce). […] Signals were quantitated on LAS-1000IR software (FujiFilm).
Data set [2] deals with CC(C)C[C@H](NC(=O)[C@H](CCCNC(=N)N)NC(=O)[C@H](CCCNC(=N)N)NC(=O)[C@@H](N)CCCNC(=N)N)C(=O)N[C@@H](CO)C(=O)N[C@@H](Cc1ccccc1)C(=O)N[C@@H](C)C(=O)N[C@@H](CCC(=O)O)C(=O)N1CCC[C@H]1C(=O)NCC(=O)O. Kind of data set: purified protein, by the assay type. The following applies: other: PKA; Standard Substrate = LRRASLG; 30.0 °C.
The subject of data set [3] is T1, CC(C)C[C@H](NC(=O)[C@H](CCCCN)NC(=O)[C@@H](N)CCCCN)C(=O)N[C@@H](CC(N)=O)C(=O)N[C@@H](CCCNC(=N)N)C(=O)N[C@H](C(=O)N[C@@H](CC(C)C)C(=O)N[C@@H](CO)C(=O)N[C@@H](Cc1ccccc1)C(=O)N[C@@H](C)C(=O)N[C@@H](CCC(=O)O)C(=O)N1CCC[C@H]1C(=O)NCC(=O)O)[C@@H](C)O.
T1 construct: made in house; host or cells: Sf21 insect cells
Briefly: Kinetic parameters for peptide phosphorylation, radioactive filter-binding assay. The data set is classed as biochemical, human. The following applies: other: PKBα; Standard Substrate = GRPRTSSFAEG; 30.0 °C. From the text: Apart from the AMP-activated protein kinase (AMPK, a gift from Drs S. Hawley and D. G. Hardie), cGMP-dependent protein kinase (PKG, a generous gift from Drs Susan Lohmann and Ulrich Walter, University of Wurzburg, Germany) and the catalytic subunit of cyclic AMP-dependent protein kinase (PKA, a gift from Dr C. Smythe), which were isolated from rat liver, bovine lung and bovine heart, respectively, all other protein kinases were expressed as either GST-fusion or His-tagged proteins (by a person, a person, Dr A. Paterson or a person, in this Division). The expressed proteins all corresponded to the human sequences apart from the rat Rho-dependent protein kinase (ROCK-II) and rat mitogen-activated protein kinase (MAPK) activated kinase-1a (MAPKAP-K1a, also called RSK). […]
All protein kinase assays were linear with respect to time. […] All papers were subsequently washed a further three times in phosphoric acid, once in acetone, then dried and counted for radioactivity. […] The plates were then washed six times (five min per wash) in PBS, 0.1% Tween 20 and binding of the phospho-specific antibody detected by incubating the plates with peroxidase-conjugated anti-sheep antibodies (Pierce). […] Signals were quantitated on LAS-1000IR software (FujiFilm). […]

As to CaMKII (Homo sapiens), in data set [1], the Km amounted to 300 µM. Turning to PKA (Bos taurus), the Km in data set [2] came to 30 µM. PKBα (Homo sapiens): the Km in data set [3] is 2 µM.
